Results taken from publication PMC10063446 (Nature Immunology, 2023).

Tests used:
[1] = target: SARS-CoV-2 RBD immobilised on the CM5 chip (SARS-CoV-2 wild-type (assumed)); experiment: SPR; conditions: both partners purified
[2] = target: T1, wild-type SARS-CoV-2 S protein expressed on the surface of HEK 293T cells (SARS-CoV-2 wild-type (MN908947.3), UniProt P0DTC2); experiment: flow cytometry on cells; conditions: one partner purified
T1 construct: also called S^WT protein

[3] = target: T2, recombinant wild-type SARS-CoV-2 S trimer (ELISA antigen) (SARS-CoV-2 wild-type, UniProt P0DTC2); experiment: ELISA; conditions: one partner purified
T2 construct: also called S^WT trimer; recombinant S protein; source: bought: Sino Biological

[4] = target: T3, recombinant RBD protein of wild-type SARS-CoV-2 (ELISA antigen) (SARS-CoV-2 wild-type, UniProt P0DTC2); experiment: ELISA; conditions: one partner purified
T3 construct: No catalogue number printed

Binder	binding result [1]	binding result [2]	binding result [3]	binding result [4]
P5S-3B11 (full IgG1) (antibody, V domains shown, IgG1; group 2) VH: EVQLVESGGGLVQPGGSLRISCAASGLTFTGYWMNWVRQAPGKGLEWVANIKEDGSEKYYVDSVKGRFTISRDNAKNSLYLQMNSLRVEDTAVYYCARLRWLRGNFDHWGQGTLVTVSS VL: NFMLTQPHSVSESPGKTVTISCTGSNGYIANNYVQWYQQRPGSVPTVVIYEDNQRPSGVPDRFSGSIDSSSNSASLIISGLKTEDEADYYCQSYDTPNVVFGGGTKLTVL	binds	–	–	–
P5-1H1 (full IgG1) (antibody, V domains shown) VH: EVQLVESGGGLIQPGGSLRLSCAASGITVSSNYMTWVRQPPGKGLEWVSVIYSGGSTFYADPVKGRFTISRDNSRNTLYLQMNSLRAEDTAVYYCARDLQVYGMDVWGQGTTVTVSS VL: DIQLTQSPSFLSASVGDRVTITCRASQGISNFLAWYQQKPGKAPKLLIYAASTLQGGVPSTFSGSGSGTEFTLTISSLQPEDFATYYCQHLNDYPLFGGGTRVEIK	–	binds	binds	–
P2S-2E9 (full IgG1) (antibody, V domains shown) VH: QITLKESGPTLVKPTQTLTLTCTFSGFSLSTSGVGVGWIRQPPGKALEWLALIYWDDDKRYSPSLKSRLTITKDTSKNQVVLTMTNMDPVDTATYYCARHRIGYIFDYWGQGTLVTVSS VL: QSALTQPASVSGSPGQSITISCTGTSSDVGDFNYVSWYQQHPGKAPKLMIYDVTKRPSGVSNRFSGSKSGNTASLTISGLQAEDEADYCCSSYTTSSISFGGGTKLTVL	binds	binds	binds	binds
P2-1B1 (full IgG1) (antibody, V domains shown) VH: QVQLVQSGAEVKRPGSSVKVSCKASGGTFSSYAISWVRQAPGQGPEWMGGIIPIFGTPHNAQKFQGRVTITADESTSTAYMELSSLRSEDTAMYYCSRTKGDILTGYTDYYFDSWGQGTLVTVSS VL: not shown	–	–	binds	–
P5-1C8 (full IgG1) (antibody, V domains shown) VH: EVQLVESGGGLIQPGGSLRLSCAASEIIVSRNYMNWVRQAPGKGLEWVSVIYSGGSTFYADSVKGRFTISRDNSENTLYLQMNSLRAEDTAVYYCARGYGDYYFDYWGRGTLVTVSS VL: not shown	–	–	binds	–
